25 molecules from patent publication US20250064909A1 (MEDIMABBIO, published 2025) can be followed below.

Where a chain is given by its changes, count along the chain named.

T1: recombinant human TIGIT (Acrobiosystems) (human, UniProt Q495A1 22-141)
T1 construct: Bought protein; also called hTIGIT; human TIGIT antigen
T1 sequence: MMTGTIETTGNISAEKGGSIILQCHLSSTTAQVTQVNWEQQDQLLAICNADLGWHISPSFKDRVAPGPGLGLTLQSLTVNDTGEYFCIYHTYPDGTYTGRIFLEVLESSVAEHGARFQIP

T2: recombinant human TIGIT (Sino Biological) (human, UniProt Q495A1 22-138)
T2 construct: Bought protein; NP_776160.2; also called human TIGIT antigen; hTIGIT
T2 sequence: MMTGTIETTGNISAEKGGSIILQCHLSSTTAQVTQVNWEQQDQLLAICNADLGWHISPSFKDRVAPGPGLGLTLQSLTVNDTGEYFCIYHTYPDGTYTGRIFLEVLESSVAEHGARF

B1: 7A6 VH0/Vκ0 chimeric antibody (human IgG1, kappa) (antibody, V domains shown)
VH: DVQLQESGPGLVKPSQSLSLTCTVTGYSITSDYAWNWIRQFPGNKLEWMGYISYSGSARYNPSLKSRISITRDTSMNQFFLQLNSVTAEDTATYYCARKGYPAYFAYWGQGTLVTVSS
VL: DIVMTQSHKFMSTSVGDRVSISCKASQDVSTAVAWYQQKPGQSPELLIYSASYRYTGVPDRFTGSGSGTDFTFTISSVQAEDLAVYYCQHHYSTPYTFGGGTKLEMKR
notes: Mouse 7A6 variable regions on human IgG1/kappa constant regions; also called VH0/Vk0; 7A6 VH0Vk0
B2: 7A6 VH3/Vκ3 humanized antibody (human IgG1, kappa) (antibody, V domains shown)
VH: QVQLQESGPGLVKPSQTLSLTCTVTGYSITSDYAWNWIRQPPGKGLEWMGYISYSGSARYNPSLKSRVTISRDTSKNQFSLKLSSVTAEDTATYYCARKGYPAYFAYWGQGTLVTVSS
VL: DIQMTQSPSSLSASVGDRVSITCKASQDVSTAVAWYQQKPGQAPRLLIYSASYRYTGVPDRFSGSGSGTDFTLTISSLQAEDVAVYYCQHHYSTPYTFGQGTKLEIKR
notes: Tested as IgG in supernatant of transiently transfected HEK293 EBNA cells
B3: 7A6 VH4/Vκ4 humanized antibody (human IgG1, kappa) (antibody, V domains shown)
VH: B2 VH with E89A, T93V
VL: B2 VL with S20T, K24R
notes: also called 7A6 VH4/Vk4; 7A6VH4/Vk4
B4: 7A6 VH1/Vκ2 humanized antibody (human IgG1, kappa) (antibody, V domains shown)
VH: B2 VH with Q1D, V68I, K76M, S84N
VL: B2 VL with Q3V, S63T
notes: as for B2
B5: 7A6 VH1/Vκ1 humanized antibody (human IgG1, kappa) (antibody, V domains shown)
VH: B2 VH with Q1D, V68I, K76M, S84N
VL: B2 VL with Q3V, P8H, S10F, R45E, S63T, I106M
notes: as for B2
B6: 7A6 VH1/Vκ4 humanized antibody (human IgG1, kappa) (antibody, V domains shown)
VH: B2 VH with Q1D, V68I, K76M, S84N
VL: B2 VL with S20T, K24R
notes: as for B2
B7: 7A6 VH2/Vκ5 humanized antibody (human IgG1, kappa) (antibody, V domains shown)
VH: B2 VH with Q1D, V68I
VL: B2 VL with A80P, V83F, V85T
notes: as for B2
B8: 7A6 VH5/Vκ5 humanized antibody (human IgG1, kappa) (antibody, V domains shown)
VH: B2 VH with R72V, E89A, T93V
VL: B2 VL with A80P, V83F, V85T
notes: as for B2
B9: 7A6 VH5/Vκ4 humanized antibody (human IgG1, kappa) (antibody, V domains shown)
VH: B2 VH with R72V, E89A, T93V
VL: B2 VL with S20T, K24R
notes: as for B2
B10: 7A6 VH2/Vκ4 humanized antibody (human IgG1, kappa) (antibody, V domains shown)
VH: B2 VH with Q1D, V68I
VL: B2 VL with S20T, K24R
notes: as for B2
B11: 7A6 VH4/Vκ2 humanized antibody (human IgG1, kappa) (antibody, V domains shown)
VH: B2 VH with E89A, T93V
VL: B2 VL with Q3V, S63T
notes: as for B2
B12: 7A6 VH1/Vκ3 humanized antibody (human IgG1, kappa) (antibody, V domains shown)
VH: B2 VH with Q1D, V68I, K76M, S84N
VL: B2 VL
notes: as for B2
B13: 7A6 VH5/Vκ2 humanized antibody (human IgG1, kappa) (antibody, V domains shown)
VH: B2 VH with R72V, E89A, T93V
VL: B2 VL with Q3V, S63T
notes: as for B2
B14: 7A6 VH3/Vκ1 humanized antibody (human IgG1, kappa) (antibody, V domains shown)
VH: B2 VH
VL: B2 VL with Q3V, P8H, S10F, R45E, S63T, I106M
notes: as for B2
B15: 7A6 VH2/Vκ3 humanized antibody (human IgG1, kappa) (antibody, V domains shown)
VH: B2 VH with Q1D, V68I
VL: B2 VL
notes: as for B2
B16: 7A6 VH4/Vκ5 humanized antibody (human IgG1, kappa) (antibody, V domains shown)
VH: B2 VH with E89A, T93V
VL: B2 VL with A80P, V83F, V85T
notes: as for B2
B17: 7A6 VH5/Vκ1 humanized antibody (human IgG1, kappa) (antibody, V domains shown)
VH: B2 VH with R72V, E89A, T93V
VL: B2 VL with Q3V, P8H, S10F, R45E, S63T, I106M
notes: as for B2
B18: 7A6 VH1/Vκ5 humanized antibody (human IgG1, kappa) (antibody, V domains shown)
VH: B2 VH with Q1D, V68I, K76M, S84N
VL: B2 VL with A80P, V83F, V85T
notes: as for B2
B19: 7A6 VH4/Vκ1 humanized antibody (human IgG1, kappa) (antibody, V domains shown)
VH: B2 VH with E89A, T93V
VL: B2 VL with Q3V, P8H, S10F, R45E, S63T, I106M
notes: as for B2
B20: 7A6 VH3/Vκ2 humanized antibody (human IgG1, kappa) (antibody, V domains shown)
VH: B2 VH
VL: B2 VL with Q3V, S63T
notes: as for B2
B21: 7A6 VH2/Vκ2 humanized antibody (human IgG1, kappa) (antibody, V domains shown)
VH: B2 VH with Q1D, V68I
VL: B2 VL with Q3V, S63T
notes: as for B2
B22: 7A6 VH5/Vκ3 humanized antibody (human IgG1, kappa) (antibody, V domains shown)
VH: B2 VH with R72V, E89A, T93V
VL: B2 VL
notes: as for B2
B23: 7A6 VH2/Vκ1 humanized antibody (human IgG1, kappa) (antibody, V domains shown)
VH: B2 VH with Q1D, V68I
VL: B2 VL with Q3V, P8H, S10F, R45E, S63T, I106M
notes: as for B2
B24: 7A6 VH3/Vκ4 humanized antibody (human IgG1, kappa) (antibody, V domains shown)
VH: B2 VH
VL: B2 VL with S20T, K24R
notes: as for B2
B25: 7A6 VH4/Vκ3 humanized antibody (human IgG1, kappa) (antibody, V domains shown)
VH: B2 VH with E89A, T93V
VL: B2 VL
notes: as for B2

The first assay concerns the target T1, recombinant human TIGIT (Acrobiosystems). Put plainly: SPR (Biacore T200), multi-cycle kinetics, purified IgG captured on anti-human IgG CM5 chip, TIGIT as analyte, 1:1 fit. (Surface plasmon resonance follows binding to a sensor surface in real time, without labels.)
Experimental: Kinetic experiments were performed at 25° C. using a Biacore T200 operated with Control software V2.0.1 and Evaluation software V3.0 (GE Healthcare, Uppsala, Sweden).
HBS-P+ (GE Healthcare, Uppsala, Sweden) supplemented with 1% BSA w/v (Sigma, Dorset, UK) was used as the running buffer and was also used for dilution of ligands and analytes. The purified leading antibodies were diluted in the running buffer to a final concentration of 1 μg/mL, and at the initiation of each cycle, were loaded onto Fc2, Fc3, and Fc4 sites on the anti-human IgG CM5 sensor chip (GE Healthcare, Little Chalfont, UK). The antibodies were captured at a flow rate of 10 μl/min until a response level (RL) of ˜150 RU was achieved, followed by a stabilization period.
To minimize potential mass transfer effects, recombinant human TIGIT (Acrobiosystems, China) was introduced as the analyte at a flow rate of 50 μl/min to obtain multi-cycle kinetic data. […] For each concentration, association phases were monitored for 240 seconds, followed by 900 seconds of monitoring the dissociation phase. The sensor chip surface was regenerated between kinetic cycles by injecting 3M MgCl₂ twice. To ensure the stability of both the surface and the analyte across kinetic cycles, repetitive injections of blank and a single concentration of the analyte were programmed into the kinetic run.
A word on the Kd: it is the constant that tells how readily two partners part at equilibrium. The koff is a measure of how fast the partners let go of each other. A word on the kon: it is a measure of how fast the partners come together. Take B1: the Kd amounted to 0.077 nM, the koff was determined as 0.000176 s⁻¹ and the kon is 2.28e+06 M⁻¹ s⁻¹.

The target in the next assay is T2, recombinant human TIGIT (Sino …). Put plainly: SPR (Biacore T200), single cycle kinetics, IgG from supernatant captured on anti-human chip, TIGIT as analyte, 1:1 fit.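 Further: measured at 25 °C in HBS-P+ with 1% BSA, four ascending TIGIT concentrations, 210 s association per step, one final 900 s dissociation.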
Experimental: (§1) The kinetic test was conducted at 25° C. using the Biacore T200 running Biacore T200 Control software V2.0.1 and Evaluation software V3.0 (GE Healthcare, Uppsala, Sweden).
(§2) To reduce non-specific binding to the reference surface, HBS-P+ (GE Healthcare, Uppsala, Sweden) supplemented with 1% BSA w/v (Sigma, Dorset, UK) was used as the running buffer and was also used for dilution of ligand and analyte. The supernatant containing IgG was diluted in the running buffer to 1 μg/mL. At the beginning of each cycle, the antibody was loaded onto Fc2, Fc3, and Fc4 on the anti-human sensor chip (GE Healthcare, Little Chalfont, UK). […] Then, the surface was allowed to stabilize.
(§3) To minimize potential mass transfer effects, recombinant human TIGIT (from Sino Biological) was used as the analyte and injected at a flow rate of 40 μl/min to obtain Single cycle kinetic data. […] For each of the four increasing antigen concentrations, the association phases were monitored for 210 seconds, and after the last antigen injection, a single dissociation phase was measured for 900 seconds. The sensor chip surface was regenerated by a single injection of 3 M MgCl₂.
Take B1: the Kd turned out to be 0.652 nM, the dissociation rate constant (koff) turned out to be 0.0016 s⁻¹ and the kon came to 2.46e+06 M⁻¹ s⁻¹.

B2: the Kd came out at 0.903 nM, the off-rate constant (koff) came out at 0.0015 s⁻¹ and the kon stood at 1.66e+06 M⁻¹ s⁻¹.

B3: the Kd is 1.29 nM, the koff was found to be 0.00192 s⁻¹ and the kon was determined as 1.49e+06 M⁻¹ s⁻¹.

In the case of B4, the Kd came out at 0.811 nM, the koff worked out at 0.00146 s⁻¹ and the kon worked out at 1.8e+06 M⁻¹ s⁻¹.

Regarding B5, the Kd worked out at 0.554 nM, the koff came out at 0.00129 s⁻¹ and the kon came out at 2.33e+06 M⁻¹ s⁻¹.

For the molecule B6, the Kd amounted to 0.876 nM, the koff was found to be 0.00167 s⁻¹ and the kon amounted to 1.91e+06 M⁻¹ s⁻¹.

Consider B7, for which the Kd was determined as 0.754 nM, the koff was 0.0013 s⁻¹ and the kon was found to be 1.72e+06 M⁻¹ s⁻¹.

As for B8, the Kd was 1.25 nM, the koff worked out at 0.0017 s⁻¹ and the kon came out at 1.36e+06 M⁻¹ s⁻¹.

Take B9: the Kd worked out at 1.52 nM, the koff is 0.00181 s⁻¹ and the kon amounted to 1.19e+06 M⁻¹ s⁻¹.

As for B10, the Kd was 1.03 nM, the koff amounted to 0.00181 s⁻¹ and the kon is 1.75e+06 M⁻¹ s⁻¹.

Regarding B11, the Kd was found to be 1.06 nM, the koff is 0.00185 s⁻¹ and the kon came to 1.75e+06 M⁻¹ s⁻¹.

B12: the Kd worked out at 0.963 nM, the koff was 0.00182 s⁻¹ and the kon was 1.89e+06 M⁻¹ s⁻¹.

For the molecule B13, the Kd is 1.66 nM, the koff came out at 0.00204 s⁻¹ and the kon stood at 1.23e+06 M⁻¹ s⁻¹.

On to B14, for which the Kd was found to be 0.715 nM, the koff was 0.00155 s⁻¹ and the kon was determined as 2.17e+06 M⁻¹ s⁻¹.

On to B15, for which the Kd was found to be 0.897 nM, the koff was found to be 0.00134 s⁻¹ and the kon turned out to be 1.49e+06 M⁻¹ s⁻¹.

For B16, the Kd was found to be 0.922 nM, the koff came to 0.00162 s⁻¹ and the kon came to 1.76e+06 M⁻¹ s⁻¹.

Regarding B17, the Kd stood at 0.858 nM, the koff worked out at 0.00124 s⁻¹ and the kon was 1.45e+06 M⁻¹ s⁻¹.

On to B18, for which the Kd is 0.717 nM, the koff stood at 0.00129 s⁻¹ and the kon is 1.8e+06 M⁻¹ s⁻¹.

For B19, the Kd worked out at 0.616 nM, the koff amounted to 0.00107 s⁻¹ and the kon came out at 1.73e+06 M⁻¹ s⁻¹.

Take B20: the Kd worked out at 0.963 nM, the koff amounted to 0.00173 s⁻¹ and the kon stood at 1.8e+06 M⁻¹ s⁻¹.

As to B21, the Kd stood at 0.961 nM, the koff worked out at 0.00158 s⁻¹ and the kon was 1.65e+06 M⁻¹ s⁻¹.

For the molecule B22, the Kd is 1.51 nM, the koff was found to be 0.00189 s⁻¹ and the kon was 1.25e+06 M⁻¹ s⁻¹.

On to B23, for which the Kd was 0.715 nM, the koff was 0.00168 s⁻¹ and the kon came out at 2.36e+06 M⁻¹ s⁻¹.

B24: the Kd worked out at 1.2 nM, the koff is 0.00196 s⁻¹ and the kon is 1.63e+06 M⁻¹ s⁻¹.

In the case of B25, the Kd came to 0.944 nM, the koff worked out at 0.00175 s⁻¹ and the kon turned out to be 1.85e+06 M⁻¹ s⁻¹.

The target is the same in another assay. In words: SPR single cycle kinetics; KD divided by KD of the VH0/Vκ0 chimeric antibody.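 Further: biacore T200 SPR at 25 °C, IgG captured on anti-human chip, TIGIT analyte in four rising concentrations, 210 s association each, 900 s dissociation.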
Experimental: as §1, §2, §3
As for B1, the “Relative KD” value worked out at 1.

Consider B2, for which the “Relative KD” value turned out to be 1.38.

Consider B3, for which the “Relative KD” value turned out to be 1.98.

In the case of B4, the “Relative KD” value came out at 1.24.

Regarding B5, the “Relative KD” value came to 0.85.

For the molecule B6, the “Relative KD” value was determined as 1.34.

For B7, the “Relative KD” value was determined as 1.16.

For the molecule B8, the “Relative KD” value is 1.92.

As for B9, the “Relative KD” value was found to be 2.33.

On to B10, for which the “Relative KD” value is 1.58.

For the molecule B11, the “Relative KD” value amounted to 1.63.

In the case of B12, the “Relative KD” value is 1.48.

In the case of B13, the “Relative KD” value worked out at 2.55.

For B14, the “Relative KD” value stood at 1.1.

As to B15, the “Relative KD” value was 1.38.

B16: the “Relative KD” value came out at 1.41.

Take B17: the “Relative KD” value is 1.32.

As for B18, the “Relative KD” value stood at 1.1.

B19: the “Relative KD” value stood at 0.94.

In the case of B20, the “Relative KD” value was 1.48.

With B21, the “Relative KD” value was determined as 1.47.

For B22, the “Relative KD” value was determined as 2.32.

Regarding B23, the “Relative KD” value turned out to be 1.1.

Take B24: the “Relative KD” value came to 1.84.

As to B25, the “Relative KD” value turned out to be 1.45.
